Data as given in IntAct's records for PubMed 16249186.

B1: Protein E7 (Human papillomavirus type 1a), P06465 (parent)
chain: MVGEMPALKDLVLQLEPSVLDLDLYCYEEVPPDDIEEELVSPQQPYAVVASCAYCEKLVRLTVLADHSAIRQLEELLLRSLNIVCPLCTLQRQ
B2: Retinoblastoma-associated protein (Homo sapiens), P06400 (parent)
chain: MPPKTPRKTAATAAAAAAEPPAPPPPPPPEEDPEQDSGPEDLPLVRLEFEETEEPDFTALCQKLKIPDHVRERAWLTWEKVSSVDGVLGGYIQKKKELWGICIFIAAVDLDEMSFTFTELQKNIEISVHKFFNLLKEIDTSTKVDNAMSRLLKKYDVLFALFSKLERTCELIYLTQPSSSISTEINSALVLKVSWITFLLAKGEVLQMEDDLVISFQLMLCVLDYFIKLSPPMLLKEPYKTAVIPINGSPRTPRRGQNRSARIAKQLENDTRIIEVLCKEHECNIDEVKNVYFKNFIPFMNSLGLVTSNGLPEVENLSKRYEEIYLKNKDLDARLFLDHDKTLQTDSIDSFETQRTPRKSNLDEEVNVIPPHTPVRTVMNTIQQLMMILNSASDQPSENLISYFNNCTVNPKESILKRVKDIGYIFKEKFAKAVGQGCVEIGSQRYKLGVRLYYRVMESMLKSEEERLSIQNFSKLLNDNIFHMSLLACALEVVMATYSRSTSQNLDSGTDLSFPWILNVLNLKAFDFYKVIESFIKAEGNLTREMIKHLERCEHRIMESLAWLSDSPLFDLIKQSKDREGPTDHLESACPLNLPLQNNHTAADMYLSPVRSPKKKGSTTRVNSTANAETQATSAFQTQKPLKSTSLSLFYKKVYRLAYLRLNTLCERLLSEHPELEHIIWTLFQHTLQNEYELMRDRHLDQIMMCSMYGICKVKNIDLKFKIIVTAYKDLPHAVQETFKRVLIKEEEYDSIIVFYNSVFMQRLKTNILQYASTRPPTLSPIPHIPRSPYKFPSSPLRIPGGNIYISPLKSPYKISEGLPTPTKMTPRSRILVSIGESFGTSEKFQKINQMVCNSDRVLKRSAEGSNPPKPLKKLRFDIEGSDEADGSKHLPGESKFQQKLAEMTSTRTRMQKQKMNDSMDTSNKEEK
partner: B1 chain
B3: Protein E7 (Human papillomavirus type 1a), P06465 (parent)
chain: B1 chain
partner: B2 chain

Variants of: B1
Settings: with e2f3_human E2F3, O00716
Chain of e2f3_human E2F3, O00716 (O00716 whole entry): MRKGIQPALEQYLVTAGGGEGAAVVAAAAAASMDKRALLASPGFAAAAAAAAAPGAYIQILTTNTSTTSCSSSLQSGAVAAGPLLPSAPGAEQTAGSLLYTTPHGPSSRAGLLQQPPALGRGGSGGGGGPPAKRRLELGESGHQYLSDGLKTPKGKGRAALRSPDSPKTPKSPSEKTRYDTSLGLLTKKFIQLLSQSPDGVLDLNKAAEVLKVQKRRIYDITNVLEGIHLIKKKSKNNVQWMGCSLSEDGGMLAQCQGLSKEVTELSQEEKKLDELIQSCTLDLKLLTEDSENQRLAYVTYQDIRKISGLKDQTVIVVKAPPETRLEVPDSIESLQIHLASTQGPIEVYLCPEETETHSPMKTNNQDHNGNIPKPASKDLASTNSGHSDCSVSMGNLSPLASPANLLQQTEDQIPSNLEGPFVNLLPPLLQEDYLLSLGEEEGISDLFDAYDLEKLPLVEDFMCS

Variant	effect of a mutation on the interaction
MVGEMPALKDLVLQLEPSVLDLDLYCYEEVPPDDIEEELVSPQQPYAVVASCAYCEKLVELTVLADHSAIRQLEELLLRSLNIVCPLCTLQRQ [R60E]	decreasing interaction
MVGEMPALKDLVLQLEPSVLDLDLYCYEEVPPDDIEEELVSPQQPYAVVASCAYCEKLVRETVLADHSAIRQLEELLLRSLNIVCPLCTLQRQ [L61E]	decreasing interaction

Variants of: B2
Settings: with ve7_hpv1 E7, P06465

Variant	effect of a mutation on the interaction
K810E;K814E;K824E	disrupting interaction

Variants of: B3
Settings: with rb_human RB1, P06400

Variant	effect of a mutation on the interaction
MVGEMPALKDLVLQLEPSVLDLDLYCYEEVPPDDIEEELVSPQQPYAVVASCAYCEKLVRLTVLADHSAIRQLRRLLLRSLNIVCPLCTLQRQ [E74R;E75R]	decreasing interaction
